For this assay, the target named is human A2A adenosine receptor (A2AAR), residues 1-316, N154Q (human) (UniProt P29274). Description: SEC.
Sequence of UniProt P29274 (P29274 1-316 N154Q): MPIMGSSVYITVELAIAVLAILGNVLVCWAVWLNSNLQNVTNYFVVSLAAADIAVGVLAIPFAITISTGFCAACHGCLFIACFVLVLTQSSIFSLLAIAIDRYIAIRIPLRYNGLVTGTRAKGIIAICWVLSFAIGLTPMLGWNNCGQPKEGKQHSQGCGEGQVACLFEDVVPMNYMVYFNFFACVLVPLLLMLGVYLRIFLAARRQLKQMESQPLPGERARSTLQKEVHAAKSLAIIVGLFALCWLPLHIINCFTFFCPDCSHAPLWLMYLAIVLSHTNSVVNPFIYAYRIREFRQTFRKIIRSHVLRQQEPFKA

“mini-Gs, an engineered variant of the Gs protein α-subunit” came in with a percent of the receptor in complex of 95%.
